From paper PMC3319578, “Talin Contains A C-Terminal Calpain2 Cleavage Site Important In Focal Adhesion Dynamics” (PLoS ONE, 2012)
Where a chain is given by its changes, count along the chain named. Numbers in names are those of the source.

B1: talin1 2300–2541 polypeptide (C-terminal actin-binding site and dimerisation domain), wild type (domain or fragment, mouse, UniProt P26039 2300-2541, looked up)
chain: DPTVIAENELLGAAAAIEAAAKKLEQLKPRAKPKEADESLNFEEQILEAAKSIAAATSALVKAASAAQRELVAQGKVGAIPANALDDGQWSQGLISAARMVAAATNNLCEAANAAVQGHASQEKLISSAKQVAASTAQLLVACKVKADQDSEAMKRLQAAGNAVKRASDNLVKAAQKAAAFEDQENETVVVKEKMVGGIAQIIAAQEEMLRKERELEEARKKLAQIRQQQYKFLPSELRDEH
notes: Cloned into pET-151/D-TOPO; dimer by gel filtration; also called talin 2300–2541; ABS-DD; source: E. coli, purified (Ni-NTA, TEV cleavage, Resource-Q)
B2: talin1 2300–2541 E2492G mutant (domain or fragment, mouse, UniProt P26039 2300-2541, looked up)
chain: B1 chain with E193G
notes: talin1, mouse, residues 2300–2541 with E2492G; Dimer by gel filtration; also called E2494G (as printed once in the text); source: E. coli, purified (Ni-NTA, TEV cleavage, Resource-Q)

Molecular target: the molecule itself
Assay: SEC; analytical gel filtration, Superdex-75 (10/300), room temperature, 20 mM Tris pH 8.0, 150 mM NaCl, 2 mM DTT, 0.8 ml/min

Row | Protein | stoichiometry N
1 | B1 | 2
2 | B2 | 2
